Test results taken from US20250218531A1 (ABSCI, published 2025).
Changes are numbered by the printed parent chain. Several values for one entry are separate records, joined by “and”; a condition that tells them apart may be missing. Equal values may be shown once.

B1: Trastuzumab HCDR3 variant ARSGYPGYGSFAY (Fab, V domains shown)
VH: EVQLVESGGGLVQPGGSLRLSCAASGFNIKDTYIHWVRQAPGKGLEWVARIYPTNGYTRYADSVKGRFTISADTSKNTAYLQMNSLRAEDTAVYYCARSGYPGYGSFAYWGQGTLVTVSS
VL: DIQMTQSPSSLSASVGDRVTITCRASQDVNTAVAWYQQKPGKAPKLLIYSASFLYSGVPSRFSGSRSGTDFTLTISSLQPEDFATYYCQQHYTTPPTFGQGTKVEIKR
B2: Trastuzumab HCDR3 variant ARYGDGTYYFFAH (Fab, V domains shown)
VH: B1 VH with S99Y, Y101D, P102G, G103T, G105Y, S106F, Y109H
VL: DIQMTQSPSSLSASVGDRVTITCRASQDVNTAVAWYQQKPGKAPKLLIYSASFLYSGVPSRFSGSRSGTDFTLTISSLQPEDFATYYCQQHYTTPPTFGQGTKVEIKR
B3: Trastuzumab HCDR3 variant ARYDYYGYYYFDY (Fab, V domains shown)
VH: B1 VH with S99Y, G100D, P102Y, G105Y, S106Y, A108D
VL: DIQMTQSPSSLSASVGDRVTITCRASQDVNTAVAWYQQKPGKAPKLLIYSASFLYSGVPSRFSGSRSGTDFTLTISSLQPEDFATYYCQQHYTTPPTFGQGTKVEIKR
B4: Trastuzumab HCDR3 variant ARYYYDFGYYFDY (Fab, V domains shown)
VH: B1 VH with S99Y, G100Y, P102D, G103F, Y104G, G105Y, S106Y, A108D
VL: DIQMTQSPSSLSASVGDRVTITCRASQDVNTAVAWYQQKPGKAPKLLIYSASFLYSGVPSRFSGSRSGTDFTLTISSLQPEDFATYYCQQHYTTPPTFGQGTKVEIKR
B5: Trastuzumab HCDR3 variant ARYGGYGNYWFDT (Fab, V domains shown)
VH: B1 VH with S99Y, Y101G, P102Y, Y104N, G105Y, S106W, A108D, Y109T
VL: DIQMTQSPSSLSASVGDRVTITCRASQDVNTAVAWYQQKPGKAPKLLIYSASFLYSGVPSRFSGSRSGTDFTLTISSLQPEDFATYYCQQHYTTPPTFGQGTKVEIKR
B6: Trastuzumab HCDR3 variant ARYGGGYYYYFDV (Fab, V domains shown)
VH: B1 VH with S99Y, Y101G, P102G, G103Y, G105Y, S106Y, A108D, Y109V
VL: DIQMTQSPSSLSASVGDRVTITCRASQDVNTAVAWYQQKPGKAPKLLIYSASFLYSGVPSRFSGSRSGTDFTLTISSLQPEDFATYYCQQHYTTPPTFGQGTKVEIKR
B7: Trastuzumab HCDR3 variant ARWEQASVGSFGY (Fab, V domains shown)
VH: B1 VH with S99W, G100E, Y101Q, P102A, G103S, Y104V, A108G
VL: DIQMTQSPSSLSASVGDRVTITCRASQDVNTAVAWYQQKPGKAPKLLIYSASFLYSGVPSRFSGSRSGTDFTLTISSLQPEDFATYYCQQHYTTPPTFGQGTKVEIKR
B8: Trastuzumab HCDR3 variant ARWWYGGRNYFDI (Fab, V domains shown)
VH: B1 VH with S99W, G100W, P102G, Y104R, G105N, S106Y, A108D, Y109I
VL: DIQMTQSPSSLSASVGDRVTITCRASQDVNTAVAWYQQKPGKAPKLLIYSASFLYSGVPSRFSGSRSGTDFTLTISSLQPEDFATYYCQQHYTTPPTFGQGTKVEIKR
B9: Trastuzumab HCDR3 variant ARWRYGGAYQFAL (Fab, V domains shown)
VH: B1 VH with S99W, G100R, P102G, Y104A, G105Y, S106Q, Y109L
VL: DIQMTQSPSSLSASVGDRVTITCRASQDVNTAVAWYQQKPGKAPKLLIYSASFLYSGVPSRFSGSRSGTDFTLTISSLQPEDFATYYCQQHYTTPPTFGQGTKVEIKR
B10: Trastuzumab HCDR3 variant ARYLTDADFRLHY (Fab, V domains shown)
VH: B1 VH with S99Y, G100L, Y101T, P102D, G103A, Y104D, G105F, S106R, F107L, A108H
VL: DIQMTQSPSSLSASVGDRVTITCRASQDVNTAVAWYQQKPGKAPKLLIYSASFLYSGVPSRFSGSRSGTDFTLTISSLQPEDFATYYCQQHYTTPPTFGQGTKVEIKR
B11: Trastuzumab HCDR3 variant ARWGSYGYYYFDY (Fab, V domains shown)
VH: B1 VH with S99W, Y101S, P102Y, G105Y, S106Y, A108D
VL: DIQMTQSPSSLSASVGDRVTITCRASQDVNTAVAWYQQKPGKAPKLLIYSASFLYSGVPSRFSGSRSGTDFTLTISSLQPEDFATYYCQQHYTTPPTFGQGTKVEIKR
B12: Trastuzumab HCDR3 variant ARWQGRSGYYMDY (Fab, V domains shown)
VH: B1 VH with S99W, G100Q, Y101G, P102R, G103S, Y104G, G105Y, S106Y, F107M, A108D
VL: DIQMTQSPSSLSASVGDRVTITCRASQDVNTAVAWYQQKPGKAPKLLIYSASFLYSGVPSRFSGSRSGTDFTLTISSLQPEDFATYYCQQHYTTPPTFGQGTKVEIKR
B13: Trastuzumab HCDR3 variant ARYGPYYYYAMDY (Fab, V domains shown)
VH: B1 VH with S99Y, Y101P, P102Y, G103Y, G105Y, S106A, F107M, A108D
VL: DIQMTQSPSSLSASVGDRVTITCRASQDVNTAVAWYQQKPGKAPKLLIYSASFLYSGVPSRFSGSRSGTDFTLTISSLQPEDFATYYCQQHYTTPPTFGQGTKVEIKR
B14: Trastuzumab HCDR3 variant ARYYSYGGYYFDY (Fab, V domains shown)
VH: B1 VH with S99Y, G100Y, Y101S, P102Y, Y104G, G105Y, S106Y, A108D
VL: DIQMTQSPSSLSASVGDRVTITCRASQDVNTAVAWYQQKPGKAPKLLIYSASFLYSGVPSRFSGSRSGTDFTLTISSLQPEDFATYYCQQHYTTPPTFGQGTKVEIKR
B15: Trastuzumab HCDR3 variant ARSYAFLYGRMDY (Fab, V domains shown)
VH: B1 VH with G100Y, Y101A, P102F, G103L, S106R, F107M, A108D
VL: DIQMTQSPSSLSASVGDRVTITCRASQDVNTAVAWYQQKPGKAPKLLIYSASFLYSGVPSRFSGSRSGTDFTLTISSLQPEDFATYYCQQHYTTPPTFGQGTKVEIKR
B16: Trastuzumab HCDR3 variant ARYGDSYYYYFDY (Fab, V domains shown)
VH: B1 VH with S99Y, Y101D, P102S, G103Y, G105Y, S106Y, A108D
VL: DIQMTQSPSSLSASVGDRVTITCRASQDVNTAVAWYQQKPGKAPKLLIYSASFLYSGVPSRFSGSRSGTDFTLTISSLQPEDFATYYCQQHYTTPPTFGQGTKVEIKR
B17: Trastuzumab HCDR3 variant ARWYGLGSYGLTY (Fab, V domains shown)
VH: B1 VH with S99W, G100Y, Y101G, P102L, Y104S, G105Y, S106G, F107L, A108T
VL: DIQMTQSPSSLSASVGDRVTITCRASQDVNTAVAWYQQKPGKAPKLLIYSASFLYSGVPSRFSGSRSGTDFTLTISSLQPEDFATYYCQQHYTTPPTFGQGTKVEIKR
B18: Trastuzumab HCDR3 variant ARYFYDHYYYFDV (Fab, V domains shown)
VH: B1 VH with S99Y, G100F, P102D, G103H, G105Y, S106Y, A108D, Y109V
VL: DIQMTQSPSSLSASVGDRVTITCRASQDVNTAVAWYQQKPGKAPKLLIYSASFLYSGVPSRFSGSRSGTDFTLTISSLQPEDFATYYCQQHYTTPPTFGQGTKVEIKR
B19: Trastuzumab HCDR3 variant ARWVSGARYYMDV (Fab, V domains shown)
VH: EVQLVESGGGLVQPGGSLRLSCAASGFNIKDTYIHWVRQAPGKGLEWVARIYPTNGYTRYADSVKGRFTISADTSKNTAYLQMNSLRAEDTAVYYCARWVSGARYYMDVWGQGTLVTVSS
VL: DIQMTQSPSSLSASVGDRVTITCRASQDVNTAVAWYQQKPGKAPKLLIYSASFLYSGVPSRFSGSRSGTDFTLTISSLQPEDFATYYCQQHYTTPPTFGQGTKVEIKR
B20: Trastuzumab HCDR3 variant ARYGRNGSYSYDY (Fab, V domains shown)
VH: B1 VH with S99Y, Y101R, P102N, Y104S, G105Y, F107Y, A108D
VL: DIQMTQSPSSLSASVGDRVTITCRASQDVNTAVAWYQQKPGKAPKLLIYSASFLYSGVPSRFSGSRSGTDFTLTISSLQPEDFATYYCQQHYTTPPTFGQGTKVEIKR
B21: Trastuzumab HCDR3 variant ARYGARSGYAYEY (Fab, V domains shown)
VH: B1 VH with S99Y, Y101A, P102R, G103S, Y104G, G105Y, S106A, F107Y, A108E
VL: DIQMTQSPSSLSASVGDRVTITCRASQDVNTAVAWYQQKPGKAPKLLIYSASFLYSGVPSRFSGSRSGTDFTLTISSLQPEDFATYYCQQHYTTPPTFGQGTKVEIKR
B22: Trastuzumab HCDR3 variant ARWWTPANYPFLY (Fab, V domains shown)
VH: B1 VH with S99W, G100W, Y101T, G103A, Y104N, G105Y, S106P, A108L
VL: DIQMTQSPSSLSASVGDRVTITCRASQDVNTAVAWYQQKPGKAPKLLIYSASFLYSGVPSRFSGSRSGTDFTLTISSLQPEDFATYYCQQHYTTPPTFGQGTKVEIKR
B23: Trastuzumab HCDR3 variant ARWGSEAFYWFDY (Fab, V domains shown)
VH: B19 VH with V100G, G102E, R104F, Y106W, M107F, V109Y
VL: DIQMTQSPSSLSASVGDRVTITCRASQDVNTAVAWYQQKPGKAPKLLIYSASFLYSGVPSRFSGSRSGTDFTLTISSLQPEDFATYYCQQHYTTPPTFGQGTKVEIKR
B24: Trastuzumab HCDR3 variant ARYGGLGGYTLAY (Fab, V domains shown)
VH: B1 VH with S99Y, Y101G, P102L, Y104G, G105Y, S106T, F107L
VL: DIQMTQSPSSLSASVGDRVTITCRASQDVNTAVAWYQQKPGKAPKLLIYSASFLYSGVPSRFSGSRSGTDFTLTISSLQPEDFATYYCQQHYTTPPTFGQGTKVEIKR
B25: Trastuzumab HCDR3 variant ARWLRGLGYYWDY (Fab, V domains shown)
VH: B19 VH with V100L, S101R, A103L, R104G, M107W, V109Y
VL: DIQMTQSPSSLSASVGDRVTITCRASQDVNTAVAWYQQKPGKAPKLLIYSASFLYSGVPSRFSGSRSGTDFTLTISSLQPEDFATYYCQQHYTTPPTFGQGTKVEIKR
B26: Trastuzumab HCDR3 variant ARYMRPAFYPFLY (Fab, V domains shown)
VH: B1 VH with S99Y, G100M, Y101R, G103A, Y104F, G105Y, S106P, A108L
VL: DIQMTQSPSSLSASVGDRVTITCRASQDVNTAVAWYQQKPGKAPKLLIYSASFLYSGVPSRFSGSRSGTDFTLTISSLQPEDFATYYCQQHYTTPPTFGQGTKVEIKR
B27: Trastuzumab HCDR3 variant ARWPPYYWWAFDY (Fab, V domains shown)
VH: B1 VH with S99W, G100P, Y101P, P102Y, G103Y, Y104W, G105W, S106A, A108D
VL: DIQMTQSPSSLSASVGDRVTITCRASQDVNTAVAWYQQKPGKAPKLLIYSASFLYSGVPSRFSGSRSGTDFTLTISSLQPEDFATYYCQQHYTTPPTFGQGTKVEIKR

Target: human epidermal growth factor receptor 2 (HER2) extracellular domain (human, UniProt P04626 23-629)
Test: SPR

Binder	Kd	log(KD (M))
B1	60.7 nM	-7.22 log(M)
B2	97.3 nM	-7.01 log(M)
B3	99 nM	-7 log(M)
B4	42.8 nM	-7.37 log(M)
B5	42.1 nM	-7.38 log(M)
B6	31.4 nM	-7.5 log(M)
B7	226 nM	-6.65 log(M)
B8	116 nM	-6.94 log(M)
B9	231 nM	-6.64 log(M)
B10	75.1 nM	-7.12 log(M)
B11	30.9 nM	-7.51 log(M)
B12	48.3 nM	-7.32 log(M)
B13	41.3 nM and 41.2 nM	-7.38 log(M)
B14	106 nM	-6.98 log(M)
B15	189 nM and 188 nM	-6.72 log(M)
B16	40.6 nM	-7.39 log(M)
B17	223 nM	-6.65 log(M)
B18	29.7 nM	-7.53 log(M)
B19	33.8 nM	-7.47 log(M)
B20	38.2 nM	-7.42 log(M)
B21	45.1 nM	-7.35 log(M)
B22	133 nM	-6.88 log(M)
B23	32.8 nM	-7.48 log(M)
B24	42.9 nM	-7.37 log(M)
B25	40.1 nM	-7.4 log(M)
B26	50.9 nM	-7.29 log(M)
B27	65.6 nM	-7.18 log(M)
